In publication PMC9483108:
Where two headings read alike, the source gives them in different places.

T1: RPL (Col-0)-His (Arabidopsis thaliana (Col-0), UniProt Q9LZM8 1-575)
T1 sequence: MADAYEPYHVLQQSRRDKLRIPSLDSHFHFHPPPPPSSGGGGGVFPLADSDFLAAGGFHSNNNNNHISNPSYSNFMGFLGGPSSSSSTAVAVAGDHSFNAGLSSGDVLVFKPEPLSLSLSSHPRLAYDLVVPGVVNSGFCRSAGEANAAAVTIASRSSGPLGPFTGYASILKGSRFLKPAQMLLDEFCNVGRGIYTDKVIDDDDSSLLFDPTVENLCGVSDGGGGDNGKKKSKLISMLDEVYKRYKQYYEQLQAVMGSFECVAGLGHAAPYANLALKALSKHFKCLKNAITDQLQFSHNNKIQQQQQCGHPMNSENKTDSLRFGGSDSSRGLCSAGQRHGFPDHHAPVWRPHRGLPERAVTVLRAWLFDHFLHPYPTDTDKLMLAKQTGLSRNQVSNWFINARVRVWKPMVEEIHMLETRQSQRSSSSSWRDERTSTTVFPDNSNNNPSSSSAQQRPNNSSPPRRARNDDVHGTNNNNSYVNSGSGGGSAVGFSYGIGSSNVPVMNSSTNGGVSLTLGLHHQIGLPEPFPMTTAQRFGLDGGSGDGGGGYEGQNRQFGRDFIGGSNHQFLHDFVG

B1: CHI-m2-65bp (dsDNA)
DNA 1: GCTATTTTTTTTTTTTTTAATTTTATTGATCAATCAACTGAATACTGAATACAAAAGAAAACCTG
DNA 2: CAGGTTTTCTTTTGTATTCAGTATTCAGTTGATTGATCAATAAAATTAAAAAAAAAAAAAATAGC
B2: GH3.3-m1-65bp (dsDNA)
DNA 1: CAAATTGAAAATGTCATTACCACTGATTAAAAAGGAATCAAAAGAAAAAAAGCTTTTAGTATTGA
DNA 2: TCAATACTAAAAGCTTTTTTTCTTTTGATTCCTTTTTAATCAGTGGTAATGACATTTTCAATTTG
B3: CHI-m1-65bp (dsDNA)
DNA 1: CCATTTTTGTTTTTTGTTTTTTCAGTGACAAACTCACATGGATTTCATTTCAGATTCAGTTAGAT
DNA 2: ATCTAACTGAATCTGAAATGAAATCCATGTGAGTTTGTCACTGAAAAAACAAAAAACAAAAATGG
B4: GH3.3-m2-65bp (dsDNA)
DNA 1: AATCAAAAGAAAAAAAGCTTTTAGTATTGAGTATTGACCGTCGCTATCGGTGACAGGCAGAGTCA
DNA 2: TGACTCTGCCTGTCACCGATAGCGACGGTCAATACTCAATACTAAAAGCTTTTTTTCTTTTGATT

Tests used:
RPL (Col-0)-His [1] = biological target: T1, RPL (Col-0)-His; test: EMSA
RPL (Col-0)-His [2] = biological target: T1, RPL (Col-0)-His; test: EMSA; remark: listed apart in the source

Binder | binding result (RPL (Col-0)-His [1]) | binding result (RPL (Col-0)-His [2])
B1 | binds | –
B2 | – | binds
B3 | binds | –
B4 | – | binds
